Test results published in PMC4612562, “Coronin 2A (CRN5) expression is associated with colorectal adenoma-adenocarcinoma sequence and oncogenic signalling” (BMC Cancer, 2015).

Molecular target: T1, His6-PRMT5 (UniProt O14744 1-637)
T1 construct: PRMT5, cDNA AF167572.1 in pReceiver-B01 (GeneCopoeia EX-V1247-B01); also called protein arginine N-methyltransferase 5; source: E. coli BL21, purified (Ni-beads)
Assay: pull-down; GST-CRN5 on glutathione-sepharose beads as bait; TEV-cleaved MAPK14 or purified His6-PRMT5 as prey; 50 mM Tris/HCl pH 8.0, 150 mM NaCl, 0.5 % NP-40; three washes; SDS-PAGE and immunoblot
Settings: both partners purified

T1 sequence (O14744 whole entry): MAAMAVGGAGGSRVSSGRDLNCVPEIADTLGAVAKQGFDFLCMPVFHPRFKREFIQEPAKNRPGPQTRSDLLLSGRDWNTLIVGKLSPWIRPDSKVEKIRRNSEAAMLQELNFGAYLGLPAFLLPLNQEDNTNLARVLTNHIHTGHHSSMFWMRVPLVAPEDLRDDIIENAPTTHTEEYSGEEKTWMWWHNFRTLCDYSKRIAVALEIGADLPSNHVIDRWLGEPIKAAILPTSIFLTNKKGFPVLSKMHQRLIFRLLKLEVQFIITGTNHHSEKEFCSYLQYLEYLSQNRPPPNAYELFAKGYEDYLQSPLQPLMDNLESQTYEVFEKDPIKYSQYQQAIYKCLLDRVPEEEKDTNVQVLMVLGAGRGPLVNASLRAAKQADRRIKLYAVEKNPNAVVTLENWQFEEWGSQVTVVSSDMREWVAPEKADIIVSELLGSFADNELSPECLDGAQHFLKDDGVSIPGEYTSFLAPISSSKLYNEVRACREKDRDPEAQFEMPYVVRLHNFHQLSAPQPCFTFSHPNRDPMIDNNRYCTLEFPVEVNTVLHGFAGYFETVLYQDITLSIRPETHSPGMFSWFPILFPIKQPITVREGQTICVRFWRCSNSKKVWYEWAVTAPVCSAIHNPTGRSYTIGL

B1: GST-CRN5 (coronin 2A) (natural protein, human, UniProt Q92828 1-525, looked up)
chain: MSWHPQYRSSKFRHVFGKPASKENCYDSVPITRSVHDNHFCAVNPHFIAVVTECAGGGAFLVIPLHQTGKLDPHYPKVCGHRGNVLDVKWNPFDDFEIASCSEDATIKIWSIPKQLLTRNLTAYRKELVGHARRVGLVEWHPTAANILFSAGYDYKVMIWNLDTKESVITSPMSTISCHQDVILSMSFNTNGSLLATTCKDRKIRVIDPRAGTVLQEASYKGHRASKVLFLGNLKKLMSTGTSRWNNRQVALWDQDNLSVPLMEEDLDGSSGVLFPFYDADTSMLYVVGKGDGNIRYYEVSADKPHLSYLTEYRSYNPQKGIGVMPKRGLDVSSCEIFRFYKLITTKSLIEPISMIVPRRSESYQEDIYPPTAGAQPSLTAQEWLSGMNRDPILVSLRPGSELLRPHPLPAERPIFNSMAPASPRLLNQTEKLAAEDGWRSSSLLEEKMPRWAAEHRLEEKKTWLTNGFDVFECPPPKTENELLQMFYRQQEEIRRLRELLTQREVQAKQLELEIKNLRMGSEQL
notes: coronin 2A (CRN5), human cDNA NM_052820 (origene SC109892) cloned into pGEX-4T-1; pGEX-4T-1 normally places GST at the N-terminus (surmised); also called coronin 4; ClipinB; source: E. coli BL21, purified on glutathione beads (pull-down); E. coli lysate captured on CRN5 mAb K77-578-1 / Protein G microbeads (co-immunoprecipitation)
binding result: binds
